B1: HEEH_KT_rd6_3546 (parent)
chain: SEEDKEREHWERLNRDFELRVLDTTFIAHHAEEVIKLLRWLEK

Variants of: B1
Test: folding stability dG (cDNA display proteolysis); higher = more stable
Settings: PBS, room temperature

| Variant | folding stability dG |
| --- | --- |
| SEEDKFREHWERLNRDFELRVLDTTFIAHHAEEVIKLLRWLEK [E6F] | 1.73 kcal/mol |
| SEEDKIREHWERLNRDFELRVLDTTFIAHHAEEVIKLLRWLEK [E6I] | 1.62 kcal/mol |
| SEEDKLREHWERLNRDFELRVLDTTFIAHHAEEVIKLLRWLEK [E6L] | 1.55 kcal/mol |
| SEEDKYREHWERLNRDFELRVLDTTFIAHHAEEVIKLLRWLEK [E6Y] | 1.55 kcal/mol |
| SEEDKPREHWERLNRDFELRVLDTTFIAHHAEEVIKLLRWLEK [E6P] | 1.19 kcal/mol |
| SEEDKNREHWERLNRDFELRVLDTTFIAHHAEEVIKLLRWLEK [E6N] | 1.38 kcal/mol |
| SEEDKMREHWERLNRDFELRVLDTTFIAHHAEEVIKLLRWLEK [E6M] | 1.54 kcal/mol |
| SEEDKGREHWERLNRDFELRVLDTTFIAHHAEEVIKLLRWLEK [E6G] | 1.35 kcal/mol |
| SEEDKVREHWERLNRDFELRVLDTTFIAHHAEEVIKLLRWLEK [E6V] | 1.56 kcal/mol |
| SEEDKTREHWERLNRDFELRVLDTTFIAHHAEEVIKLLRWLEK [E6T] | 1.56 kcal/mol |
| SEEDKAREHWERLNRDFELRVLDTTFIAHHAEEVIKLLRWLEK [E6A] | 1.49 kcal/mol |
| SEEDKKREHWERLNRDFELRVLDTTFIAHHAEEVIKLLRWLEK [E6K] | 1.18 kcal/mol |
| SEEDKHREHWERLNRDFELRVLDTTFIAHHAEEVIKLLRWLEK [E6H] | 1.43 kcal/mol |
| SEEDKSREHWERLNRDFELRVLDTTFIAHHAEEVIKLLRWLEK [E6S] | 1.47 kcal/mol |
| SEEDKRREHWERLNRDFELRVLDTTFIAHHAEEVIKLLRWLEK [E6R] | 1.38 kcal/mol |
| SEEDKCREHWERLNRDFELRVLDTTFIAHHAEEVIKLLRWLEK [E6C] | 1.7 kcal/mol |
| SEEDKWREHWERLNRDFELRVLDTTFIAHHAEEVIKLLRWLEK [E6W] | 1.8 kcal/mol |
| SEEDKDREHWERLNRDFELRVLDTTFIAHHAEEVIKLLRWLEK [E6D] | 0.956 kcal/mol |
| SEEDKQREHWERLNRDFELRVLDTTFIAHHAEEVIKLLRWLEK [E6Q] | 1.48 kcal/mol |
| SEESKEREHWERLNRDFELRVLDTTFIAHHAEEVIKLLRWLEK [D4S] | 1.29 kcal/mol |

| Variant | folding stability dG |
| --- | --- |
| SEENKEREHWERLNRDFELRVLDTTFIAHHAEEVIKLLRWLEK [D4N] | 1.44 kcal/mol |
| SEEIKEREHWERLNRDFELRVLDTTFIAHHAEEVIKLLRWLEK [D4I] | 1.4 kcal/mol |
| SEEAKEREHWERLNRDFELRVLDTTFIAHHAEEVIKLLRWLEK [D4A] | 1.38 kcal/mol |
| SEERKEREHWERLNRDFELRVLDTTFIAHHAEEVIKLLRWLEK [D4R] | 1.39 kcal/mol |
| SEEYKEREHWERLNRDFELRVLDTTFIAHHAEEVIKLLRWLEK [D4Y] | 1.37 kcal/mol |
| SEEPKEREHWERLNRDFELRVLDTTFIAHHAEEVIKLLRWLEK [D4P] | 1.38 kcal/mol |
| SEEEKEREHWERLNRDFELRVLDTTFIAHHAEEVIKLLRWLEK [D4E] | 1.56 kcal/mol |
| SEEWKEREHWERLNRDFELRVLDTTFIAHHAEEVIKLLRWLEK [D4W] | 1.45 kcal/mol |
| SEELKEREHWERLNRDFELRVLDTTFIAHHAEEVIKLLRWLEK [D4L] | 1.53 kcal/mol |
| SEECKEREHWERLNRDFELRVLDTTFIAHHAEEVIKLLRWLEK [D4C] | 2.16 kcal/mol |
| SEETKEREHWERLNRDFELRVLDTTFIAHHAEEVIKLLRWLEK [D4T] | 1.42 kcal/mol |
| SEEHKEREHWERLNRDFELRVLDTTFIAHHAEEVIKLLRWLEK [D4H] | 1.41 kcal/mol |
| SEEKKEREHWERLNRDFELRVLDTTFIAHHAEEVIKLLRWLEK [D4K] | 1.41 kcal/mol |
| SEEGKEREHWERLNRDFELRVLDTTFIAHHAEEVIKLLRWLEK [D4G] | 1.28 kcal/mol |
| SEEFKEREHWERLNRDFELRVLDTTFIAHHAEEVIKLLRWLEK [D4F] | 1.46 kcal/mol |
| SEEQKEREHWERLNRDFELRVLDTTFIAHHAEEVIKLLRWLEK [D4Q] | 1.42 kcal/mol |
| SEEMKEREHWERLNRDFELRVLDTTFIAHHAEEVIKLLRWLEK [D4M] | 1.42 kcal/mol |
| SEEVKEREHWERLNRDFELRVLDTTFIAHHAEEVIKLLRWLEK [D4V] | 1.3 kcal/mol |
| SEEDKEAEHWERLNRDFELRVLDTTFIAHHAEEVIKLLRWLEK [R7A] | 1.53 kcal/mol |
| SEEDKEGEHWERLNRDFELRVLDTTFIAHHAEEVIKLLRWLEK [R7G] | 1.47 kcal/mol |

| Variant | folding stability dG |
| --- | --- |
| SEEDKEIEHWERLNRDFELRVLDTTFIAHHAEEVIKLLRWLEK [R7I] | 1.36 kcal/mol |
| SEEDKEFEHWERLNRDFELRVLDTTFIAHHAEEVIKLLRWLEK [R7F] | 1.13 kcal/mol |
| SEEDKEEEHWERLNRDFELRVLDTTFIAHHAEEVIKLLRWLEK [R7E] | 1.3 kcal/mol |
| SEEDKEHEHWERLNRDFELRVLDTTFIAHHAEEVIKLLRWLEK [R7H] | 1.18 kcal/mol |
| SEEDKEDEHWERLNRDFELRVLDTTFIAHHAEEVIKLLRWLEK [R7D] | 1.25 kcal/mol |
| SLEDKEREHWERLNRDFELRVLDTTFIAHHAEEVIKLLRWLEK [E2L] | 1.53 kcal/mol |
| SGEDKEREHWERLNRDFELRVLDTTFIAHHAEEVIKLLRWLEK [E2G] | 1.57 kcal/mol |
| SVEDKEREHWERLNRDFELRVLDTTFIAHHAEEVIKLLRWLEK [E2V] | 1.45 kcal/mol |
| SWEDKEREHWERLNRDFELRVLDTTFIAHHAEEVIKLLRWLEK [E2W] | 1.57 kcal/mol |
| SNEDKEREHWERLNRDFELRVLDTTFIAHHAEEVIKLLRWLEK [E2N] | 1.38 kcal/mol |
| SIEDKEREHWERLNRDFELRVLDTTFIAHHAEEVIKLLRWLEK [E2I] | 1.6 kcal/mol |
| SPEDKEREHWERLNRDFELRVLDTTFIAHHAEEVIKLLRWLEK [E2P] | 1.34 kcal/mol |
| SYEDKEREHWERLNRDFELRVLDTTFIAHHAEEVIKLLRWLEK [E2Y] | 1.45 kcal/mol |
| SAEDKEREHWERLNRDFELRVLDTTFIAHHAEEVIKLLRWLEK [E2A] | 1.48 kcal/mol |
| SFEDKEREHWERLNRDFELRVLDTTFIAHHAEEVIKLLRWLEK [E2F] | 1.36 kcal/mol |
| SREDKEREHWERLNRDFELRVLDTTFIAHHAEEVIKLLRWLEK [E2R] | 1.61 kcal/mol |
| SSEDKEREHWERLNRDFELRVLDTTFIAHHAEEVIKLLRWLEK [E2S] | 1.31 kcal/mol |
| SMEDKEREHWERLNRDFELRVLDTTFIAHHAEEVIKLLRWLEK [E2M] | 1.43 kcal/mol |
| SHEDKEREHWERLNRDFELRVLDTTFIAHHAEEVIKLLRWLEK [E2H] | 1.42 kcal/mol |
